{
  "source": "patent US20040043378A1",
  "target": "lysine-acetylated histone H4 peptide SGRGKGG-AcK-GLGK (Lys8 acetylated)",
  "test": "15N-HSQC backbone amide chemical shift change upon binding to the AcK peptide",
  "data": [
    {"substance": "bromodomain of P/CAF (residues 719-832 of SEQ ID NO:2) (from UniProt Q92831 719-832)", "values": [
      {"measurement": "maximum weighted chemical shift difference (Tyr809)", "result": 0.16, "unit": "ppm"}
    ]}
  ]
}
